B1: BMS3h-56-2 (other)
VH: EVQLLESGGGLVQPGGSLRLSCAASGFTFRDYEMWWVRQAPGKGLERVSAINPQGTRTYYADSVKGRFTISRDNSKNTLYLQMNSLRAEDTAVYYCAKLPFTFDDWGQGTLVTVSS
notes: Anti-human CD40 domain antibody (dAb), a single human VH domain
B2: BMS3h-38-211 (other)
VH: EVQLLASGGGLVQPGGSLRLSCAASGFTFEEEEMIWVRQAPGKGLEWVSAISRQGGSTYYADSVKGRFTISRDNSKNTLYLQMNSLRAEDTAVYYCGKEPFRYDYWGQGTLVTVSS
notes: domain antibody (dAb), single VH domain
B3: BMS3h-38-215 (other)
VH: B2 VH with R53G, Q54L, G56W
notes: as for B2
B4: BMS3h-38-217 (other)
VH: B2 VH with Q54R, G56Y
notes: as for B2
B5: BMS3h-37-2 (other)
VH: EVQLLESGGGLVQPGGSLRLSCAASGFTFEWYEMQWVRRAPGKGLEWVSAISGDGYRTYYADSVKGRFTISRDNSKNTLYLQMNSLRAEDTAVYYCAKELGYFDYWGRGTLVTVSS
notes: Anti-human CD40 domain antibody (dAb), single VH domain
B6: BMS3h-37-11 (other)
VH: B5 VH with R39K, W106R
notes: as for B5
B7: BMS3h-38-211 (other)
VH: B2 VH
notes: as for B5
B8: BMS3h-38-215 (other)
VH: B2 VH with R53G, Q54L, G56W
notes: as for B5
B9: BMS3h-38-217 (other)
VH: B2 VH with Q54R, G56Y
notes: as for B5
B10: BMS3h-233 (other)
VH: EVQLLESGGGLVQPGGSLRLSCAASGFTFAHYNMRWVRQAPGKGLEWVSTITKTGFRTYYADSVKGRFTISRDNSKNTLYLQMNSLRAEDTAVYYCAKAGQFDFDYWGQGTLVTVSS
notes: dAb, single VH
B11: BMS3h-231 (other)
VH: EVQLLESGGGLVQPGGSLRLSCAASGFTFSAYNMWWARQAPGKGLEWVSWINSTGSRTYYADSVKGRFTISRDNSKNTLYLQMNSLRAEDTAVYYCAKNWHRGRFDYWGQGTLVTVSS
notes: dAb, single VH

Positions count from the first letter of the chain named. Values joined by “and” are separate entries in the source; they are usually repeats but may differ in a detail not shown here. Equal entries are not always repeated.

In the first assay the target is T1, wild type cynomolgus monkey CD40 Fc fusion (cynomolgus monkey (Macaca …)).
T1 construct: also called wt-cyno-CD40; wt-cCD40; not shown: human IgG1 Fc
T1 chain: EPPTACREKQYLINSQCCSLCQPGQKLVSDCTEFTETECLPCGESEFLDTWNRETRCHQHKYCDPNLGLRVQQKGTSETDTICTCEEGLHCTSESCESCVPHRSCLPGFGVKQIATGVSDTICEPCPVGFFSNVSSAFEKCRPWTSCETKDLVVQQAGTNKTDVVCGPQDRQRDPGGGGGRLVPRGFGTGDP
Kind of assay: SPR (ProteOn XPR36), CD40-Fc captured via anti-human IgG(Fc), dAb as analyte, 25 C.
Turning to B1, the binding result is “no binding (tested: 405 nM (highest dAb concentration))”.

A further assay addresses T2, human CD40 (H76R, W109L, L121P) Fc fusion (human).
T2 construct: As m1 with H76R, W109L and L121P; also called hCD40-M5; not shown: human IgG1 Fc
T2 chain: T1 chain with S95A, L106S, R142H, Q172L
Kind of assay: SPR ProteOn XPR36.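 Also: surface plasmon resonance with CD40-Fc fusions captured through their Fc on an anti-human IgG chip, sensorgrams reference-subtracted against surfaces lacking CD40-Fc.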
As to B2, the binding result was “no binding (tested: 405 nM)”.
B3: the binding result was “no binding (tested: 405 nM)”.
Same read-out and setting: to B4 belongs “no binding (tested: 405 nM)”.

A further assay addresses T3, human CD40 (W109L, L121P) Fc fusion (human, UniProt P25942 21-193).
T3 construct: As m1 with W109L and L121P; also called hCD40-M4; not shown: human IgG1 Fc
Kind of assay: SPR ProteOn XPR36.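 Also: surface plasmon resonance with CD40-Fc fusions captured through their Fc on an anti-human IgG chip, sensorgrams reference-subtracted against surfaces lacking CD40-Fc.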
In the case of B2, the binding result is given as “no binding (tested: 405 nM)”.
Turning to B3, the binding result is given as “no binding (tested: 405 nM)”.
Turning to B4, the binding result is “no binding (tested: 405 nM)”.

The target of a further assay is T4, human CD40 (W109R) Fc fusion (Chimpanzee CD40) (human, UniProt P25942 21-193).
T4 construct: As m1 with W109R (residue of chimpanzee CD40); also called hCD40-M3; not shown: human IgG1 Fc
Kind of assay: SPR ProteOn XPR36.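 Also: surface plasmon resonance with CD40-Fc fusions captured through their Fc on an anti-human IgG chip, sensorgrams reference-subtracted against surfaces lacking CD40-Fc.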
On to B2, for which the binding result was “no binding (tested: 405 nM)”.
Same read-out and setting: to B3 belongs “no binding (tested: 405 nM)”.
Same read-out and setting: the result for B4 reads “no binding (tested: 405 nM)”.

The next assay concerns the target T5, wild type cynomolgus monkey CD40 Fc fusion (cynomolgus monkey; human).
T5 construct: also called wt-cyno-CD40; wt-cCD40; not shown: human IgG1 Fc
T5 chain: T1 chain
Kind of assay: SPR ProteOn XPR36.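 Also: surface plasmon resonance with CD40-Fc fusions captured through their Fc on an anti-human IgG chip, sensorgrams reference-subtracted against surfaces lacking CD40-Fc.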
As to B2, the binding result was “no binding (tested: 405 nM)”.
Same read-out and setting: the result for B3 reads “no binding (tested: 405 nM)”; that for B4, “no binding (tested: 405 nM)”.

The next assay concerns the target T6, wild type human CD40 Fc fusion (human, UniProt P25942 21-193).
T6 construct: also called wt-hCD40; not shown: human IgG1 Fc
Kind of assay: SPR, ProteOn XPR36; CD40-Fc captured, dAb analyte; 1:1 fit.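 Also: CD40-Fc captured on anti-human IgG(Fc) surface of a GLC chip, buffer pH 7.1, sensorgrams double-referenced against surfaces without CD40-Fc.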 A general note: Surface plasmon resonance follows binding to a sensor surface in real time, without labels.
Molecule B5 had a Kd of 1.96 nM, a koff of 0.000417 s⁻¹ and a kon of 212000 M⁻¹ s⁻¹.
The like results for B6 were, in that order, 1.92 nM, 0.00056 s⁻¹ and 291000 M⁻¹ s⁻¹.
The like results for B7 were, in that order, 3.26 nM, 0.000362 s⁻¹ and 111000 M⁻¹ s⁻¹.
The like results for B8 were, in that order, 2.1 nM, 0.000288 s⁻¹ and 137000 M⁻¹ s⁻¹.
In turn, B9 returned a Kd of 2.34 nM, an off-rate (koff) of 0.000296 s⁻¹ and a kon of 127000 M⁻¹ s⁻¹.

The target in a further assay is T7, human CD40 (H76R) Fc fusion (human, UniProt P25942 21-193).
T7 construct: also called hCD40-M1; hCD40 M1 (H76R); not shown: human IgG1 Fc
Described as above.
Take B5: the Kd came to 2.58 nM, the koff was determined as 0.000562 s⁻¹ and the kon is 217000 M⁻¹ s⁻¹.
On to B6, for which the Kd worked out at 2.39 nM, the koff is 0.000717 s⁻¹ and the kon was 300000 M⁻¹ s⁻¹.
For the molecule B7, binding was put at a Kd of 3.98 nM, the koff stood at 0.00051 s⁻¹ and the kon turned out to be 128000 M⁻¹ s⁻¹.
Regarding B8, the affinity, expressed as Kd, was 3.03 nM; the koff was determined as 0.00053 s⁻¹; the kon was determined as 175000 M⁻¹ s⁻¹.
In the case of B9, the affinity, expressed as Kd, was 3.41 nM; the koff is 0.000481 s⁻¹; the kon worked out at 141000 M⁻¹ s⁻¹.

The target of another assay is T8, human CD40 (H76R) Fc fusion (human, UniProt P25942 21-193).
T8 construct: As m1 with H76R; also called hCD40-M1; not shown: human IgG1 Fc
Kind of assay: SPR ProteOn XPR36, CD40-Fc captured, dAb analyte.
B2 yielded a Kd of 4 nM.
In turn, B3 registered a Kd of 3 nM.
The same measure, in the same setting: to B4 belongs 3.4 nM.

The target of another assay is T9, wild type human CD40 Fc fusion (human, UniProt P25942 21-193).
T9 construct: also called wt-hCD40; not shown: human IgG1 Fc
Kind of assay: SPR ProteOn XPR36, CD40-Fc captured, dAb analyte.
Turning to B2, the Kd was 3.3 nM and 6.1 nM.
Still for that read-out and setting: the result for B3 reads 2.1 nM and 6 nM; that for B4, 2.3 nM and 2.4 nM.

The target in another assay is T10, wild type cynomolgus monkey CD40 Fc fusion (cynomolgus monkey (Macaca …)).
T10 construct: also called wt-cCD40; wt-cyno-CD40; not shown: human IgG1 Fc
T10 chain: T1 chain
Kind of assay: SPR, ProteOn XPR36; CD40-Fc captured, dAb analyte.
Turning to B5, the binding result was “no binding (tested: dAb tested up to 405 nM)”.
On to B6, for which the binding result was “no binding (tested: dAb tested up to 405 nM)”.
Consider B7, for which the binding result is “no binding (tested: dAb tested up to 405 nM)”.
On to B8, for which the binding result is “no binding (tested: dAb tested up to 405 nM)”.
With B9, the binding result is given as “no binding (tested: dAb tested up to 405 nM)”.

The target of a further assay is T11, human CD40 (W109L, L121P) Fc fusion (human, UniProt P25942 21-193).
T11 construct: Same construct as wt-hCD40 with W109L and L121P; also called hCD40-M4; hCD40 M4 (W109L, L121P); not shown: human IgG1 Fc
Kind of assay: SPR, ProteOn XPR36; CD40-Fc captured, dAb analyte.
Take B5: the binding result is “no binding (tested: dAb tested up to 405 nM)”.
With B6, the binding result is recorded as “no binding (tested: dAb tested up to 405 nM)”.
For the molecule B7, the binding result is recorded as “no binding (tested: dAb tested up to 405 nM)”.
Same read-out and setting: to B8 belongs “no binding (tested: dAb tested up to 405 nM)”.
The same measure, in the same setting: to B9 belongs “no binding (tested: dAb tested up to 405 nM)”.

The next assay has as its target T12, human CD40 (W109R) Fc fusion (Chimpanzee CD40) (human, UniProt P25942 21-193).
T12 construct: Same construct as wt-hCD40 with W109R (the residue of chimpanzee CD40); also called hCD40-M3; hCD40 M3 (W109R); not shown: human IgG1 Fc
Kind of assay: SPR, ProteOn XPR36; CD40-Fc captured, dAb analyte.
For the molecule B5, the binding result is given as “no binding (tested: dAb tested up to 405 nM)”.
The same measure, in the same setting: to B6 belongs “no binding (tested: dAb tested up to 405 nM)”; to B7, “no binding (tested: dAb tested up to 405 nM)”; to B8, “no binding (tested: dAb tested up to 405 nM)”.
Still for that read-out and setting: to B9 belongs “no binding (tested: dAb tested up to 405 nM)”.

For another assay, the target named is T13, human CD40 (H76R, W109L, L121P) Fc fusion (human).
T13 construct: Same construct as wt-hCD40 with H76R, W109L and L121P; also called hCD40-M5; hCD40-M5 (H76R, W109L, L121P); not shown: human IgG1 Fc
T13 chain: T1 chain with S95A, L106S, R142H, Q172L
Kind of assay: SPR, ProteOn XPR36; CD40-Fc captured, dAb analyte.
As for B5, the binding result is on record as “no binding (tested: dAb tested up to 405 nM)”.
Same read-out and setting: the result for B6 reads “no binding (tested: dAb tested up to 405 nM)”.
With B7, the binding result was “no binding (tested: dAb tested up to 405 nM)”.
With B8, the binding result is “no binding (tested: dAb tested up to 405 nM)”.
Still for that read-out and setting: to B9 belongs “no binding (tested: dAb tested up to 405 nM)”.

In the next assay the target is T14, human CD40 (BMS, CY24FEB06-01) (human, UniProt P25942 21-193).
T14 construct: Soluble reagent of the bead and ELISA RBA; It is detected with an anti-human IgG (Fc) mAb, so it may be a CD40-Ig fusion
Kind of assay: ELISA RBA, competition with IZ-CD40L. A general note: In an ELISA, binding on a coated surface is turned into a signal by an enzyme label.
Experimental: Clear walled High Bind, 384-well plates (Corning, UK) were coated with 25 μl of 1 μg/ml Neutravidin in 0.2 M carbonate-bicarbonate buffer, pH 9.4 overnight at 4° C. The following day, assay plates were washed with 0.1% (v/v) Tween PBS buffer, blocked with 1% (w/v) BSA in PBS for 1 hour at room temperature and washed again. […] Following washing of the assay plate, the dAb:human CD40 complex was incubated in the assay plate at room temperature for 2 hours with gentle agitation. […] Absorbance signal was measured using a SpectraMax® M5e plate reader (Molecular Devices) at 450 nm following neutralization with 1M HCl solution.
B10 came in with an EC50 of 2770 nM.
With B11, the EC50 was 670 nM and 870 nM.

Another assay addresses T6, wild type human CD40 Fc fusion. Kind of assay: SPR, ProteOn XPR36; CD40-Fc captured, dAb analyte; 1:1 fit; repeat.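 Also: CD40-Fc captured on anti-human IgG(Fc) surface of a GLC chip, buffer pH 7.1, sensorgrams double-referenced against surfaces without CD40-Fc.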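 Also: CD40-Fc held on a GLC chip by an immobilized anti-human IgG(Fc) antibody, sensorgrams double-referenced against CD40-free surfaces, running buffer sodium phosphate with NaCl and Tween 20 at pH 7.1.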
Experimental: Assays were performed on a BioRad ProteOn XPR36 SPR instrument. The SPR surfaces were prepared by immobilizing 8 μg/ml anti-human IgG(Fc) antibody (Biacore/GE Healthcare) in 10 mM sodium acetate pH 4.5 on a BioRad GLC sensor chip using standard ethyl(dimethylaminopropyl) carbodiimide (EDC)/N-hydroxysuccinimide (NHS) chemistry, with ethanolamine blocking. The running buffer for immobilization and kinetic binding analysis was 10 mM sodium phosphate, 130 mM sodium chloride, 0.05% tween 20, pH 7.1. CD40-Fc fusion proteins at concentrations of 20 μg/ml were captured in the vertical orientation on these surfaces via the Fc tail, and reference surfaces lacking CD40-Fc proteins were used for reference subtraction. […] The surfaces were regenerated in both horizontal and vertical orientations with 30 s pulses of 3 M MgCl₂ followed by running buffer at 60 μl/min. Sensogram data was double-referenced and then fitted to a 1:1 Langmuir model using BioRad ProteOn Manager V.2.1.0.38 software, to determine the association rate constant (ka), the dissociation rate constant (kd), and the equilibrium dissociation constant (KD).
On to B5, for which the Kd was determined as 2 nM, the off-rate (koff) was found to be 0.000426 s⁻¹ and the kon came out at 213000 M⁻¹ s⁻¹.
As for B6, the Kd came out at 2.28 nM, the koff was 0.00064 s⁻¹ and the on-rate (kon) is 281000 M⁻¹ s⁻¹.
The like results for B7 were, in that order, 6.08 nM, 0.000728 s⁻¹ and 120000 M⁻¹ s⁻¹.
B8 came in with a Kd of 6.02 nM, a koff of 0.00082 s⁻¹ and a kon of 136000 M⁻¹ s⁻¹.
Regarding B9, the Kd is 2.37 nM, the koff worked out at 0.00034 s⁻¹ and the kon came to 144000 M⁻¹ s⁻¹.

Usually Kd stands for the concentration at which binding is half-saturated. The term koff denotes the first-order rate constant of dissociation. One may read the kon as the rate constant with which the complex forms. By EC50 is commonly meant the concentration that produces a half-maximal response.

The record behind these values is patent US20200199244A1 (published 2020).
